{"source": "patent US7012133", "about": "(CHILDREN S MEDICAL CENTER, dated 2006)", "binders": {"B1": {"name": "human eotaxin (ligand)", "chain": "not shown", "modifications": "125I label (Bolton Hunter reagent) where used as radioligand"}}, "key": {"[1]": {"molecular_target": "T1, CCR1 on stable L1.2 transfectants (UniProt P32246 1-355, limits assumed)", "T1 construct": "whole, on cells; also called CKR-1; CC CKR1", "T1 sequence (looked up)": "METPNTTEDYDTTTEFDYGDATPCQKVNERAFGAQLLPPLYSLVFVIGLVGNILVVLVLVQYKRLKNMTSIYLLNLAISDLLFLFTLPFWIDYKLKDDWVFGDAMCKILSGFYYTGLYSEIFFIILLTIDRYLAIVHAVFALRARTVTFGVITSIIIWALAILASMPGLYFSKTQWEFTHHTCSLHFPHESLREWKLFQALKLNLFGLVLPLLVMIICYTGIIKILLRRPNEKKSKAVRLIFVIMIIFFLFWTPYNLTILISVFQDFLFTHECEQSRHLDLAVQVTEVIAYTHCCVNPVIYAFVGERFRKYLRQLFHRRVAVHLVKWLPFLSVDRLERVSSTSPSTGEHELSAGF", "experiment": "125I-RANTES binding to L1.2 CCR1 transfectants"}, "[2]": {"molecular_target": "T2, C-C chemokine receptor 3 (CCR3, CKR-3) of human origin, native, on blood eosinophils and basophils (human, UniProt P51677 1-355)", "T2 construct": "whole, on cells; also called Eos L2 receptor; eosinophilic chemokine receptor", "T2 sequence (looked up)": "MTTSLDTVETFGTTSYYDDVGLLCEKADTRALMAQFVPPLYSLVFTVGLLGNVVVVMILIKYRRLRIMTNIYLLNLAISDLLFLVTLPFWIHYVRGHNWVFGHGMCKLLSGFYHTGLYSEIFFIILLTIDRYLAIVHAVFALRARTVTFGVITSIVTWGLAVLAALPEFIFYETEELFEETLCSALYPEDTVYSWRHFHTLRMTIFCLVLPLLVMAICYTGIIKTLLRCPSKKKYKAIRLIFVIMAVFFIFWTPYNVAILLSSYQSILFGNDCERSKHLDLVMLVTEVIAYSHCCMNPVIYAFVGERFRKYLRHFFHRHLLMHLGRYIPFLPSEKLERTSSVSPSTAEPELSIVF", "experiment": "Scatchard analysis, radioligand binding to human eosinophils", "method": "(§1) In microfuge tubes, 5 ×10^5 cells were incubated with 0.1 nM radiolabeled chemokine (purchased from New England Nuclear, Massachusetts) in 200 µl aliquots at room temperature for 60 minutes. The cells were either incubated with radiolabeled chemokine alone, or together with unlabeled chemokines (from PeproTech) as competitors, which were used at the indicated concentrations. At the end of incubation, cells were washed 3 times in the binding buffer, each wash consisting of centrifugation in a microfuge at 7,000×g for 2 minutes. After the wash, the pellets were transferred into LP3 tubes and the radioactivity of the cells, which represented the amount of binding was measured in a gamma counter. All samples were in duplicates and all the experiments were repeated at least 3 times. Scatchard Plot was calculated from the binding data by MicroSoft Excell and CricketGraph on a Macintosh computer.\n(§2) Figure 6: FIG. 6 is a histogram illustrating the binding of RANTES and MIP-1α to human eosinophils. […] Human eosinophils were incubated with 0.1 nM radiolabeled RANTES and the indicated concentrations of cold chemokines. The data plotted are the means and standard deviations of duplicates for each sample."}, "[3]": {"molecular_target": "T3, receptor encoded by the A31 cDNA clone (human CKR-3 / Eos L2) (human, UniProt P51677 1-355)", "T3 construct": "one RBL transfectant is also mentioned", "T3 sequence": "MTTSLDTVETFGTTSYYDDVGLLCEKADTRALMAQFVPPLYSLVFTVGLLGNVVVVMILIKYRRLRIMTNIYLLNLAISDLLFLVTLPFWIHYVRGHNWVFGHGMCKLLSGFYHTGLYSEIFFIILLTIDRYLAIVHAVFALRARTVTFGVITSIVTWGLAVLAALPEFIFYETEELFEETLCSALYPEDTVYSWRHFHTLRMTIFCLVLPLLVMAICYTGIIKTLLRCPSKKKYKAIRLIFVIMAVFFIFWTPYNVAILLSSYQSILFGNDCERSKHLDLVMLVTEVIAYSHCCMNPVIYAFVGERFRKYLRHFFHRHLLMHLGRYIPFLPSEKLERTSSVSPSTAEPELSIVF", "experiment": "Scatchard analysis, 125I-RANTES on membranes of A31-293-#20 cells", "method": "Plates were grown to confluence, and membranes were prepared as follows. Culture medium was removed, and the cells were washed with phosphate buffered saline. Cells were harvested by washing with TEN (40 mM TRIS, pH 7.5, 1 mM EDTA, and 150 mM NaCl). The cells were frozen in liquid nitrogen, thawed at room temperature, and the membrane fraction was collected by centrifugation in a conical tube for 10 minutes at 18,000 rpm. Each binding point was determined using one-half of the membranes harvested from a single 100 mm plate grown to confluence.\nBinding assays were performed as described by Van Riper, G. et al., J. Exp. Med., 177: 851 (1993), with the following modifications. […] Binding buffer was 50 mM Hepes, 1 mM CaCl_2, 5 mM MgCl_2, 0.5% BSA, pH 7.2. Radiolabeled and cold ligand were added simultaneously to the membranes (see above), and incubated for 1.5 hours at room temperature. […] Activity retained on filters after washing was determined by scintillation counting. Filters were placed in 5 cc of scintillation fluid and were then counted in a miniaxi-beta liquid scintillation counter (United Technologies, Packard, Downers Grove, Ill.). All points were determined in triplicate, except for the point at 2 nM, which was determined in duplicate. […]"}, "[4]": {"molecular_target": "T4, MIP-1α binding sites on human eosinophils", "T4 construct": "also called receptor for MIP-1α on eosinophils", "experiment": "Scatchard analysis, radioligand binding to human eosinophils", "method": "as §1, §2"}, "[5]": {"molecular_target": "T2, C-C chemokine receptor 3 (CCR3, CKR-3) …", "experiment": "Scatchard analysis of unlabeled eotaxin competition on human eosinophils", "method": "(§3) FIG. 11A) or to human eosinophils (FIG. 11B). […] After 60 minutes at room temperature, cell pellets were washed and counted. Scatchard plots of unlabeled eotaxin competition were calculated from the data (FIG. 11C, E5 cell line; FIG. 11D, eosinophils).\n(§4) Competition is presented as the percentage of specific binding as calculated by $100(S-B)/(T-B)$, where S is the radioactivity of the sample, B as background binding and T as total binding without competitors. Background binding was obtained by incubating cells with radiolabeled chemokine and at least 400-fold excess of unlabeled chemokines. […] Duplicates were used throughout the experiments and the standard deviations were always less than 10% of the mean. All experiments were repeated at least three times. Curve fit was calculated by […] software.\n(§5) The E5 cell line described in Example 6 was tested for its ability to bind radiolabeled eotaxin. […] In addition, both RANTES and MCP-3 were able to specifically compete for binding. None of the other chemokines tested, including MIP-1α, MIP-1β, or IL-8 were able to specifically compete for radiolabeled ligand (FIG. 12)."}, "[6]": {"molecular_target": "T2, C-C chemokine receptor 3 (CCR3, CKR-3) …", "experiment": "inhibition of 0.1 nM 125I-MCP-3 binding to human eosinophils by varied 7B11"}, "[7]": {"molecular_target": "T2, C-C chemokine receptor 3 (CCR3, CKR-3) …", "experiment": "inhibition of 0.1 nM 125I-RANTES binding to human eosinophils by varied 7B11"}, "[8]": {"molecular_target": "T2, C-C chemokine receptor 3 (CCR3, CKR-3) …", "experiment": "inhibition of 0.1 nM 125I-eotaxin binding to human eosinophils by varied 7B11"}, "human eotaxin": {"molecular_target": "B1", "experiment": "Scatchard analysis of unlabeled eotaxin competition on E5 cells", "method": "as §3, §4, §5"}, "[9]": {"molecular_target": "T2, C-C chemokine receptor 3 (CCR3, CKR-3) …", "experiment": "heterologous competition of radiolabeled RANTES binding on eosinophils", "method": "as §1, with “Cells transfected with Eos L2 receptors or normal human eosinophils purified (see above) were washed in Hanks Balanced Saline Solution (HBSS), then resuspended in binding buffer: 50 mM HEPES, 1 mM CaCl_2, 5 mM MgCl_2, 0.5% Bovine Serum Albumin (BSA), pH 7.3. In” for “In”\nFigure 6: FIG. 6 is a histogram illustrating the binding of RANTES and MIP-1α to human eosinophils. […] Human eosinophils were incubated with 0.1 nM radiolabeled RANTES and the indicated concentrations of cold chemokines. […]"}}, "data": [{"binder": "RANTES (ligand, human, UniProt P13501 24-91, looked up, also: 125I label where used as radioligand, also called cold RANTES) SPYSSDTTPCCFAYIARPLPRAHIKEYFYTSGKCSNPAVVFVTRKNRQVCANPEKKWVREYINSLEMS", "values": [{"measurement": "binding result", "setting": "[1]", "value": "binds"}, {"measurement": "Kd", "setting": "[2]", "value": 0.883, "unit": "nM"}, {"measurement": "Kd", "setting": "[3]", "value": "~2.5", "unit": "nM"}]}, {"binder": "MIP-1α (ligand, human, UniProt P10147 23-92, looked up, also: 125I label where used as radioligand, also called macrophage inflammatory protein 1α) ASLAADTPTACCFSYTSRQIPQNFIADYFETSSQCSKPGVIFLTKRSRQVCADPSEEWVQKYVSDLELSA", "values": [{"measurement": "Kd", "setting": "[4]", "value": 0.091, "unit": "nM"}]}, {"binder": "B1", "values": [{"measurement": "Kd", "setting": "[5]", "value": 0.5, "unit": "nM"}]}, {"binder": "monoclonal antibody 7B11 (ATCC Accession No. HB-12195) (antibody, V domains shown) VH: MVQLQQSGTVLARPGASVRMSCKTSGYTFTNYRMHWVRQRPGQGLEWIGSIYPGHTETTYNQNFKDKAKLTAVTSATTAYMGLSSLTNEDSAVYYCTRSGGNYWGQGTTVTVSS VL: DIQMTQSPSSLSASLGERVSLTCRASQDIGSSLNWLQQKPDGTFIRLIYATSSLDSGVPRRFSGSRSGSDYSLTISSLESEDFVDYYCLQYATFPLTFGAGTKLEIK", "values": [{"measurement": "IC50", "setting": "[6]", "value": 0.0188, "unit": "µg/mL"}, {"measurement": "IC50", "setting": "[7]", "value": 0.0137, "unit": "µg/mL"}, {"measurement": "IC50", "setting": "[8]", "value": 0.0257, "unit": "µg/mL"}]}, {"binder": "FLAG-tagged Eos L2 (CKR-3) receptor (receptor, Receptor from the 1.8 kb genomic HindIII fragment, expressed on L1.2 (L1-2) pre-B cells, 293 cells or baculovirus-infected Sf9 cells; also called Eos L2 receptor fusion protein; CKR-3/pcDNA3 product) MDYKDDDDKEFTTSLDTVETFGTTSYYDDVGLLCEKADTRALMAQFVPPLYSLVFTFGLLGNVVVVMILIKYRRLRIMTNIYLLNLAISDLLFLVTLPFWIHYVRGHNWVFGHGMCKLLSGFYHTGLYSEIFFIILLTIDRYLAIVHAVFALRARTVTFGVITSIVTWGLAVLAALPEFIFYETEELFEETLCSALYPEDTVYSWRHFHTLRMTIFCLVLPLLVMAICYTGIIKTLLRCPSKKKYKAIRLIFVIMAVFFIFWTPYNVAILLSSYQSILFGNDCERTKHLDLVMLVTEVIAYSHCCMNPVIYAFVGERFRKYLRHFFHRHLLMHLGRYIPFLPSEKLERTSSVSPSTAEPELSIVF", "values": [{"measurement": "Kd", "setting": "human eotaxin", "value": 1.5, "unit": "nM"}]}, {"binder": "MCP-3 (ligand, 125I label where used as radioligand, also called human MCP-3) not shown", "values": [{"measurement": "binding result", "setting": "[9]", "value": "binds"}]}]}
